Data: article PMC9122595

biological target: T1, His6-YY1 (UniProt P25490 1-414); test: EMSA
T1 sequence (P25490 whole entry): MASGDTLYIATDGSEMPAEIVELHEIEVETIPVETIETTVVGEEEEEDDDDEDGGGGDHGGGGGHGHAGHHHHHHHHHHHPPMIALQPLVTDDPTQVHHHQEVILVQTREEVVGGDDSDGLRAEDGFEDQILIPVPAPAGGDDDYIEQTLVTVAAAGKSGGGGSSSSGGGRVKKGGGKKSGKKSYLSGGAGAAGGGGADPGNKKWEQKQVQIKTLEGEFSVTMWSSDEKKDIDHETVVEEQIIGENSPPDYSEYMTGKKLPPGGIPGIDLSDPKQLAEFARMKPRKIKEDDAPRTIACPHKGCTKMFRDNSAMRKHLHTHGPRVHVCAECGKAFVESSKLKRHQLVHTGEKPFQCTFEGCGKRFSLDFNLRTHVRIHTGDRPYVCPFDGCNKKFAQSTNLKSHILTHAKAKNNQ

Binder | binding result
CDC6 probe (dsDNA) DNA 1: CGCTCCCCGGCCATCTTGGCGGCTGGT DNA 2: ACCAGCCGCCAAGATGGCCGGGGAGCG | binds
S2 (dsDNA) DNA 1: GGGCACAGACATTTTAATCA DNA 2: TGATTAAAATGTCTGTGCCC | binds

biological target: T1, His6-YY1; test: competition

Binder | binding result
S4 (dsDNA) DNA 1: TGGTGCCGACATTTTTTTTC DNA 2: GAAAAAAAATGTCGGCACCA | binds
S2M (dsDNA) DNA 1: GGGCACAGAGGGTTTAATCA DNA 2: TGATTAAACCCTCTGTGCCC | no binding
S5M (dsDNA) DNA 1: GCTTTCTTCGGGCTTGAAAA DNA 2: TTTTCAAGCCCGAAGAAAGC | no binding
S5 (dsDNA) DNA 1: GCTTTCTTCCATCTTGAAAA DNA 2: TTTTCAAGATGGAAGAAAGC | binds
S1 (dsDNA) DNA 1: ATGATAAGCCATGATCACAC DNA 2: GTGTGATCATGGCTTATCAT | no binding
S3 (dsDNA) DNA 1: CTTGTCTGCCATTGTATCTT DNA 2: AAGATACAATGGCAGACAAG | no binding
S4M (dsDNA) DNA 1: TGGTGCCGAGGGTTTTTTTC DNA 2: GAAAAAAACCCTCGGCACCA | no binding
